Data reported in publication PMC8748815, “The N-terminal tail of the hydrophobin SC16 is not required for rodlet formation” (Scientific Reports, 2022).

B1: SC16 with the N-terminal signal sequence removed (18Thr-114Leu of the hyd1 gene of S. commune) (natural protein, Schizophyllum commune, UniProt D8QCG9 18-114, looked up)
chain: TAVPRDVNGGTPPKSCSSGPVYCCNKTEDHLDKGTTALLGLLNIKIGDLKDLVGLNCSPLSVIGVGGNSCSAQTVCCTNTYQHGLVNVGCTPINIGL
notes: Expressed as H6-GB1-SC16 with a thrombin site; also called hydrophobin SC16; not shown: His6, N-terminal, cleaved; B1 domain of protein G (GB1), N-terminal, cleaved
B2: SC16 with 13 residues from the N-terminal tail removed (residues 31Lys-114Leu of SC16) (domain or fragment, Schizophyllum commune, UniProt D8QCG9 31-114, looked up)
chain: KSCSSGPVYCCNKTEDHLDKGTTALLGLLNIKIGDLKDLVGLNCSPLSVIGVGGNSCSAQTVCCTNTYQHGLVNVGCTPINIGL
notes: class IB hydrophobin SC16, product of the hyd1 gene of Schizophyllum commune, NCBI ID EFI94929, residues 31Lys-114Leu; Expressed as H6-GB1-SC16ΔN with a thrombin site; also called SC16ΔN; not shown: His6, N-terminal, cleaved; B1 domain of protein G (GB1), N-terminal, cleaved

Biological target: the molecule itself
Test: thioflavin T fluorescence; self-assembly during agitation (air:water interface), 50 μg/mL protein, 20 μM ThT, multicomponent buffer pH 8.5 with 1 M NaCl (SC16ΔN also at pH 5.5-8.5 with 10 mM-1 M NaCl), 6 replicates

| Protein | binding result |
| --- | --- |
| B1 | binds |
| B2 | binds |
